Laboratory results taken from patent US20240384250A1, “FIBROBLAST GROWTH FACTOR 23 MODULATING COMPOUNDS” (THE UAB RESEARCH FOUNDATION, priority 2021, published 2024).
Entries after “also recorded” stand apart in the source; their conditions may differ.

How the values were obtained:
Experiment in all cases: Pull-down of FLAG-sKL with Fc-tagged FGFR on protein A/G beads, absence of FGF23
Assay type in all cases: binding
FGFR3c = molecular target: T1, FGFR3c (Homo sapiens, UniProt P22607)
T1 construct: Fc-coupled FGFR ectodomains were immobilized on protein A/G beads; purchased R&D Systems 766FR050
T1 sequence (P22607 23-375 limits assumed): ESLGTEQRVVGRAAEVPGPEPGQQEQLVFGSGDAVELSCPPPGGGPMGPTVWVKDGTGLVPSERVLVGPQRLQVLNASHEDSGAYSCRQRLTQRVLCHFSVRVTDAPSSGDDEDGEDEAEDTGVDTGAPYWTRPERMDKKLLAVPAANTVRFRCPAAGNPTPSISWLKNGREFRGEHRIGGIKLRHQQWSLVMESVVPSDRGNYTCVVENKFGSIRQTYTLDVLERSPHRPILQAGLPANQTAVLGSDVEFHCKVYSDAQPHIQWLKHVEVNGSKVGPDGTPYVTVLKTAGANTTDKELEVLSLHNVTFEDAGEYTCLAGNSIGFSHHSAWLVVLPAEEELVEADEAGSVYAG
Procedure: (§1) To study the interaction between Fc-tagged FGFR isoforms (Fc-FGFR), FGF isoforms, and sKL, immunoprecipitation studies were conducted. Protein A beads (6501, BioVision) and protein G beads (6511, BioVision) were used at 25 μl of a 50% stock slurry per sample in a total bead volume of 50 μl. Beads were washed 5× in activity buffer (50 mM Tris [pH 7.4], 200 mM NaCl, 0.01% Tween 20). Bead spin-down assays were all performed for 2 minutes at 5000 g. Beads were resuspended in 1 ml of activity buffer in a 1.5-ml snap cap tube. One microgram of Fc-FGFR1 to 4 was incubated with the beads for 1 hour on a bead rotator. Control samples were incubated with 2 μg of anti-FGF antibody instead of Fc-FGFR. Beads were then pelleted at 5000 g for 2 minutes and washed 5× with activity buffer. Beads were resuspended and incubated with different combinations of 500 ng of FGF, 1 μg of sKL, 1.6 United States Pharmacopeia (USP) units of heparin, or phosphate-buffered saline (PBS). Beads were incubated for 1 hour on a tube rotator, and beads were pelleted and washed as before. One hundred microliters of 1× Laemmli sample buffer (1610737, Bio-Rad) with 1.42 M 2-mercaptoethanol was added, and samples were boiled for 5 minutes. Samples were analyzed using SDS-PAGE and Western blotting.
(§2) The sample (20 μl) was loaded onto Mini-PROTEAN TGX Precast Gel 4-20% for experiments with <9 samples (4568094, Bio-Rad) or Criterion TGX Precast Gel 4-20% (5678094, Bio-Rad) for experiments with >9 samples. Gels were run in 1× Tris/Glycine/SDS buffer (1610732, Bio-Rad) at 150 V and stopped when the sample dye reached the end of the gel. Gels were removed and electrotransferred via a semi-dry cassette (1703940, Bio-Rad) in I× Tris/Glycine buffer (1610734, Bio-Rad) with 20% methanol. Gels were transferred onto polyvinylidene diflouride membranes (IPVH00010, Millipore) at 20 V for 1 hour. Membranes were then blocked in 5% dried milk with 0.5% Tween 20 diluted in Tris-buffered saline (TBST; pH 7.5) for 1 hour and probed with antibodies against specific antigens at 1:1000 in TBST with 5% dried milk. Blots were washed 3× for 5 minutes in TBST and probed with HRP-coupled secondary antibodies against specific species at 1:10,000 in TBST with 5% dried milk. Membranes were imaged on the SRX-101A X-ray film developer (Konica Minolta).

FGFR4 = molecular target: T2, FGFR4 (Homo sapiens, UniProt P22455); conditions: listed as FLAG-sKL
T2 construct: Fc-FGFR4 protein (human ectodomain) was immobilized; purchased R&D Systems 685FR050
T2 sequence (P22455 22-369 limits assumed): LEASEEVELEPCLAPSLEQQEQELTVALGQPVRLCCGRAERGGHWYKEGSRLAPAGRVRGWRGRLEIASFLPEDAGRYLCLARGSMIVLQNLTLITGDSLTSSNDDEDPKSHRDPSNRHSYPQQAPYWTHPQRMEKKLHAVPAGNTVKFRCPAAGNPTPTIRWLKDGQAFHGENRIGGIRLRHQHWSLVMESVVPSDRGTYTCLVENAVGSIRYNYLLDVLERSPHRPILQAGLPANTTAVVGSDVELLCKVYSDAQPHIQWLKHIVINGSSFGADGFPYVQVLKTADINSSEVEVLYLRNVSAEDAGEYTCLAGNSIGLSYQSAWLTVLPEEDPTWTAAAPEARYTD
Procedure: as §1, §2

FGFR1c = molecular target: T3, FGFR1c (Homo sapiens, UniProt P11362)
T3 construct: Fc-coupled FGFR ectodomains were immobilized on protein A/G beads; purchased R&D Systems 658FR050
T3 sequence (P11362 22-376 limits assumed): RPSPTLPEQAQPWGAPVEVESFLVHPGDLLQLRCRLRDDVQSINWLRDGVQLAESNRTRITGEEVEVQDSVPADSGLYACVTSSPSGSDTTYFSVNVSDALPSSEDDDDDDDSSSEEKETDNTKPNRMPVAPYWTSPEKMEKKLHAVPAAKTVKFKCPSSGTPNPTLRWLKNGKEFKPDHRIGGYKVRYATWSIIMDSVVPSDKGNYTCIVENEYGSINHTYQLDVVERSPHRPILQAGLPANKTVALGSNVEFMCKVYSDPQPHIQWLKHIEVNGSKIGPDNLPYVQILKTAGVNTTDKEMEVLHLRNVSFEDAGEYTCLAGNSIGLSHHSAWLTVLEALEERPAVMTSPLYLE
Procedure: as §1, §2

FGFR2c = molecular target: T4, FGFR2c (Homo sapiens, UniProt P21802)
T4 construct: Fc-coupled FGFR ectodomains were immobilized on protein A/G beads; purchased R&D Systems 712FR050
Procedure: as §1, §2

T4 sequence (P21802 22-377 limits assumed): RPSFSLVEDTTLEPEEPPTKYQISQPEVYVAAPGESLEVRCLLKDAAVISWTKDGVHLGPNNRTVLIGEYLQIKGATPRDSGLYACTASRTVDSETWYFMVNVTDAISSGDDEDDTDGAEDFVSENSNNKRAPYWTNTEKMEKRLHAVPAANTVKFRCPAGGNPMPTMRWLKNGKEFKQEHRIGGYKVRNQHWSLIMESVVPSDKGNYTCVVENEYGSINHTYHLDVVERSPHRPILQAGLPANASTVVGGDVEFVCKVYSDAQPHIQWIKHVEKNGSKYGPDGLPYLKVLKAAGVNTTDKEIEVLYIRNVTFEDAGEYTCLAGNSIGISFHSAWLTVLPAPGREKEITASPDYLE

sKL binding to FGFR3c (FGFR3c): no sKL binding
co-precipitation of FLAG-sKL with FGFR1c (FGFR1c): could be co-precipitated with FGFR1c
sKL binding to FGFR2c (FGFR2c): no sKL binding
B1: sKL: recombinant soluble α-klotho ectodomain, mouse aa 35-982 and human aa 34-981, FLAG- or Strep/His-tagged, purified from HEK293 cells (protein)
chain: EPGDGAQTWARFSRPPAPEAAGLFQGTFPDGFLWAVGSAAYQTEGGWQQHGKGASIWDTFTHHPLAPPGDSRNASLPLGAPSPLQPATGDVASDSYNNVFRDTEALRELGVTHYRFSISWARVLPNGSAGVPNREGLRYYRRLLERLRELGVQPVVTLYHWDLPQRLQDAYGGWANRALADHFRDYAELCFRHFGGQVKYWITIDNPYVVAWHGYATGRLAPGIRGSPRLGYLVAHNLLLAHAKVWHLYNTSFRPTQGGQVSIALSSHWINPRRMTDHSIKECQKSLDFVLGWFAKPVFIDGDYPESMKNNLSSILPDFTESEKKFIKGTADFFALCFGPTLSFQLLDPHMKFRQLESPNLRQLLSWIDLEFNHPQIFIVENGWFVSGTTKRDDAKYMYYLKKFIMETLKAIKLDGVDVIGYTAWSLMDGFEWHRGYSIRRGLFYVDFLSQDKMLLPKSSALFYQKLIEKNGFPPLPENQPLEGTFPCDFAWGVVDNYIQVDTTLSQFTDLNVYLWDVHHSKRLIKVDGVVTKKRKSYCVDFAAIQPQIALLQEMHVTHFRFSLDWALILPLGNQSQVNHTILQYYRCMASELVRVNITPVVALWQPMAPNQGLPRLLARQGAWENPYTALAFAEYARLCFQELGHHVKLWITMNEPYTRNMTYSAGHNLLKAHALAWHVYNEKFRHAQNGKISIALQADWIEPACPFSQKDKEVAERVLEFDIGWLAEPIFGSGDYPWVMRDWLNQRNNFLLPYFTEDEKKLIQGTFDFLALSHYTTILVDSEKEDPIKYNDYLEVQEMTDITWLNSPSQVAVVPWGLRKVLNWLKFKYGDLPMYIISNGIDDGLHAEDDQLRVYYMQNYINEALKAHILDGINLCGYFAYSFNDRTAPRFGLYRYAADQFEPKASMKHYRKIIDSNGFPGPETLERFCPEEFTVCTECSFFHTRKS
modifications: left off: small tags and cut ends
notes: recombinant soluble α-klotho ectodomain, mouse aa 35-982 and human aa 34-981, FLAG- or Strep/His-tagged, purified from HEK293 cells
co-precipitation of FLAG-sKL with FGFR4 (FGFR4): to a lower extent with FGFR4; also recorded: bound to FGFR4 and to a lower extent to FGFR4
